Results as given in patent US20190002841A1.

Experiments:
[1] = molecular target: AAV3B capsid (vector AAV2/3B.CB7.CI.ffluciferase.RBG) (Adeno-associated virus 3B); test: AVB Sepharose HiTrap column, AAV3B against AAV3B-NKDKLN
[2] = molecular target: AAV3B-NKDKLN capsid (AAV3B with SPAKFA replaced by NKDKLN of AAV9) (Adeno-associated virus 3B); test: as above
[3] = molecular target: AAV3B capsid (vector AAV2/3B.CB7.CI.ffluciferase.RBG) (Adeno-associated virus 3B); test: AVB Sepharose HiTrap column, share washed off in wash 1
[4] = molecular target: AAV3B-NKDKLN capsid (AAV3B with SPAKFA replaced by NKDKLN of AAV9) (Adeno-associated virus 3B); test: as above
[5] = molecular target: AAV3B capsid (vector AAV2/3B.CB7.CI.ffluciferase.RBG) (Adeno-associated virus 3B); test: AVB Sepharose HiTrap column, unbound share in flow-through
[6] = molecular target: AAV3B-NKDKLN capsid (AAV3B with SPAKFA replaced by NKDKLN of AAV9) (Adeno-associated virus 3B); test: as above
[7] = molecular target: AAVrh64R1 capsid (vectors AAV2/rh.64R1.CMV.PI.EGFP.WPRE.bGH and rh.64R1 with CB7.CI.ffluciferase.RBG) (Adeno-associated virus rh.64R1); test: AVB Sepharose HiTrap column, qPCR of fractions; mix rh.64R1+rh.10
[8] = molecular target: AAV3B capsid (vector AAV2/3B.CB7.CI.ffluciferase.RBG) (Adeno-associated virus 3B); test: AVB Sepharose HiTrap column, share washed off in wash 2 (1 M NaCl)
[9] = molecular target: AAV3B-NKDKLN capsid (AAV3B with SPAKFA replaced by NKDKLN of AAV9) (Adeno-associated virus 3B); test: as above
[10] = molecular target: AAVrh10 capsid (vector AAV2/rh.10.CMV.PI.Cre.RBG) (Adeno-associated virus rh.10); test: AVB Sepharose HiTrap column, qPCR of fractions; average of two runs
[11] = molecular target: AAV8 capsid (vectors AAV2/8.CMV.ffluciferase.SV40 and AAV8 with CB7.CI.ffluciferase.RBG) (Adeno-associated virus 8); test: AVB Sepharose HiTrap column, qPCR of fractions; mix AAV8+hu.37+rh.10
[12] = molecular target: AAVhu37 capsid (vector AAV2/hu.37.TBG.EGFP.bGH) (Adeno-associated virus hu.37); test: as above
[13] = molecular target: AAV3B capsid (vector AAV2/3B.CB7.CI.ffluciferase.RBG) (Adeno-associated virus 3B); test: AVB Sepharose HiTrap column, qPCR of fractions; clarified AAV3B product
[14] = molecular target: AAV8 capsid (vectors AAV2/8.CMV.ffluciferase.SV40 and AAV8 with CB7.CI.ffluciferase.RBG) (Adeno-associated virus 8); test: AVB Sepharose HiTrap column, clarified supernatant, wild type against SPAKFA mutant
[15] = molecular target: AAV8-SPAKFA capsid (AAV8 with NQSKLN replaced by SPAKFA) (Adeno-associated virus 8); test: as above
[16] = molecular target: AAV9 capsid (vector with CB7.CI.ffluciferase.RBG) (Adeno-associated virus 9); test: as above
[17] = molecular target: AAV9-SPAKFA capsid (AAV9 with NKDKLN replaced by SPAKFA) (Adeno-associated virus 9); test: as above
[18] = molecular target: AAVrh64R1 capsid (vectors AAV2/rh.64R1.CMV.PI.EGFP.WPRE.bGH and rh.64R1 with CB7.CI.ffluciferase.RBG) (Adeno-associated virus rh.64R1); test: as above
[19] = molecular target: rh.64R1-SPAKFA capsid (rh.64R1 with NQAKLN replaced by SPAKFA) (Adeno-associated virus rh.64R1); test: as above

AVB Sepharose High Performance affinity resin ligand (14 kD fragment from a single chain llama antibody expressed in yeast) (VHH)
elution fraction yield (%) [1]: 98%
elution fraction yield (%) [2]: 87%
% of vector in the wash 1 (W1) fraction [3]: 0%
% of vector in the wash 1 (W1) fraction [4]: 0.1%
% of vector in the flow-through (FT) fraction [5]: 1.3%
% of vector in the flow-through (FT) fraction [6]: 8.2%
% of loaded vector genome in the elution fraction [7]: 22%
% of vector in the wash 2 (W2) fraction [8]: 0.3%
% of vector in the wash 2 (W2) fraction [9]: 4.6%
% of loaded vector genome in the elution fraction [10]: 84%
% of loaded vector genome in the elution fraction [11]: 20%
% of loaded vector genome in the elution fraction [12]: 82%
% of vector genomes recovered in the elution fraction [13]: 98%
% recovery of loaded vector in the elution fraction (of total fractions) [14]: 30%
% recovery of loaded vector in the elution fraction (of total fractions) [15]: 93%
% recovery of loaded vector in the elution fraction (of total fractions) [16]: 0.6%
% recovery of loaded vector in the elution fraction (of total fractions) [17]: 51%
% recovery of loaded vector in the elution fraction (of total fractions) [18]: 18%
% recovery of loaded vector in the elution fraction (of total fractions) [19]: 91%
